Measurements taken from US20060263802A1 (CRUCELL HOLLAND B V, published 2006).

Experiments:
Test in all cases: PEPSCAN ELISA, looped 15-mer, 10 ug/ml
[1] = target: looped peptide … (rabies virus strain ERA)
[2] = target: looped peptide […] (rabies virus strain ERA)
[3] = target: looped peptide … (rabies virus strain ERA); remark: listed apart in the source
[4] = target: looped peptide […] (rabies virus strain ERA); remark: listed apart in the source
[5] = target: looped peptide … (rabies virus strain ERA); remark: listed apart in the source
[6] = target: looped peptide … (rabies virus strain ERA); remark: listed apart in the source
[7] = target: looped peptide […] (rabies virus strain ERA); remark: listed apart in the source
[8] = target: looped peptide … (rabies virus strain ERA); remark: listed apart in the source
[9] = target: looped peptide […] (rabies virus strain ERA); remark: listed apart in the source
[10] = target: looped peptide […] (rabies virus strain ERA); remark: listed apart in the source
[11] = target: looped peptide … (rabies virus strain ERA); remark: listed apart in the source
[12] = target: looped peptide … (rabies virus strain ERA); remark: listed apart in the source
[13] = target: looped peptide … (rabies virus strain ERA); remark: listed apart in the source
[14] = target: looped peptide … (rabies virus strain ERA); remark: listed apart in the source
[15] = target: looped peptide […] (rabies virus strain ERA); remark: listed apart in the source

B1: human monoclonal antibody CRJB (antibody, V domains shown)
VH: QITLKETGPTLVKPTQTLTLTCTFSGFSLSTSGVGVGWIRQPPGKALEWVTLIYWDDDKRYSPSLENRVTIRKDTSKNQVALTMTNMDPLDTGTYYCAHRQHISSFPWFDSWGQGTLVTVSS
VL: SYVLTQPPSVSVAPGKTARINCGGNNIEYRSVHWYQQKSGQAPVAVIYDNSDRPSGIPERFSGSKSGNTATLTISRVEAGDEADYYCQVWDISSDVVFGGGTKLTVLG
[1]
  OD value: 76
[2]
  OD value: 186
[3]
  OD value: 68
[4]
  OD value: 87
[5]
  OD value: 72
[6]
  OD value: 60
[7]
  OD value: 206
[8]
  OD value: 79
[9]
  OD value: 132
[10]
  OD value: 71
[11]
  OD value: 74
[12]
  OD value: 92
[13]
  OD value: 79
[14]
  OD value: 63
[15]
  OD value: 156
